Measured values reported in patent US20150010572A1 (SAMSUNG ELECTRONICS, published 2015).
Changes are numbered by the printed parent chain.

T1: mutant Ang-2 protein, N467 substituted with alanine (FLAG-tagged at N-terminal) (human, UniProt O15123 281-496, limits assumed)
T1 chain: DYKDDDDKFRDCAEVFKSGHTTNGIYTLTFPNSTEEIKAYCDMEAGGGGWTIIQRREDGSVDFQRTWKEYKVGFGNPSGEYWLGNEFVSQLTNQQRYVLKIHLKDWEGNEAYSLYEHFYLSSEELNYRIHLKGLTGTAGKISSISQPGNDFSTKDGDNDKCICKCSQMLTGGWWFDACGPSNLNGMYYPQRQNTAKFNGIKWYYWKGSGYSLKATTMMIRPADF

T2: mutant Ang-2 protein, Q418 substituted with alanine (FLAG-tagged at N-terminal) (human, UniProt O15123 281-496, limits assumed)
T2 construct: also called Q418A mutant protein; Ang-2 protein having Q418A mutation
T2 chain: T1 chain with Q146A, A195N

B1: SAIT-Ang-2-AB-m8B3 (antibody, V domains shown)
VH: DVQLQESGPGLVKPSQSLSLSCTVTGYSIASDYAWNWIRQFPGNKVEWMGYINYRGNTDYNPSLKSRSSINRDTSKNQFFLQLNSVTTGDTATYYCARGNFEGAMDYWGQGTSVTVSS
VL: TIVMTQTPKFLLVSAGDRITITCKASQSVSNDVAWYQQKPGQSPKLLIYYASNRYPGVPDRFTGSGYGTDFTFTISTVQAEDLAVYFCQQDYTSPWTFGGGTELEIK
notes: also called KCLRF-BP-00293
B2: SAIT-Ang-2-AB-m2E7 (antibody, V domains shown)
VH: DLQLQESGPGLVKPSQSLSLTCTVTGYSITSDYAWNWIRQFPGNKLEWMGYISYSGSTSYNPSLKSRISITRDTSKNQFFLQLNSLTTEDTATYYCARGDYGNYVGPMDYWGQGTSVTVSS
VL: B1 VL with T1S, I19V, Q37R, P56T, T93S, W96L, G100A, G101R, E103K, I106L
notes: also called KCLRF-BP-00294

Key:
[1] = target: T1, mutant Ang-2 protein, N467 substituted …; experiment: ELISA, antibody coated, 250 ng FLAG-tagged mutant Ang-2, anti-FLAG-HRP, OD450 relative to native Ang-2
Procedure: (§1) Each well of a 96-well MaxiSorp™ flat-bottom plate (Nunc) was coated with 50 ul (microliter) of 1000 nM antibodies (Example 2). Then, the plate was washed five times with a 0.05% (v/v) Tween-20 containing PBS (PBST) and blocked with a 1% (v/v) BSA containing PBS at a room temperature for 2 hours. 250 ng of each mutant Ang-2 protein obtained by substituting S417, Q418, P419, N421, 1434, D448, A449, P452, Y460, N467, K468, or F469 residue of Ang-2 protein tagged with a FLAG sequence ([…], Sigma) at its N-terminal with alanine was added to each well of the plate, which was then allowed to react at a room temperature for 2 hours.
(§2) The plate was washed five times with a 0.05% (v/v) Tween-20 containing PBS, reacted with an anti-FLAG antibody (SIGMA) conjugated with HRP which was diluted in a 1% (v/v) BSA containing PBS at a ratio of 1:5,000 (v/v) at a room temperature for 1 hour, and washed five times with a 0.1% (v/v) Tween-20 containing PBS.
(§3) Finally, 50 ul of TMB substrates (Cell signaling) was added to each well of the plate to induce color development reaction at a room temperature for 3 min. and the reaction was ceased by the addition of 50 ul of Stop solution (Cell signaling) and then, OD450 values were measured on a plate reader (Molecular Devices). By comparing binding affinities with mutated Ang-2 to those of unmutated Ang-2, each epitope of Ang-2 antibodies was identified. The thus obtained measurement results of the binding affinities (%) of mutant Ang-2 against the binding affinity of the native Ang-2 are shown in the following Table 9.

[2] = target: T2, mutant Ang-2 protein, Q418 substituted …; experiment: as above
Procedure: as §1, §2, §3

Binder	% at RBD binding (mutant Ang-2 against native Ang-2) [1]	% at RBD binding (mutant Ang-2 against native Ang-2) [2]
B1	95.1%	4.1%
B2	96%	0.6%
